Reference: FireProtDB (doi:10.1021/bi00116a007)

B1: Aspartate aminotransferase, P00509 (parent)
chain: MFENITAAPADPILGLADLFRADERPGKINLGIGVYKDETGKTPVLTSVKKAEQYLLENETTKNYLGIDGIPEFGRCTQELLFGKGSALINDKRARTAQTPGGTGALRVAADFLAKNTSVKRVWVSNPSWPNHKSVFNSAGLEVREYAYYDAENHTLDFDALINSLNEAQAGDVVLFHGCCHNPTGIDPTLEQWQTLAQLSVEKGWLPLFDFAYQGFARGLEEDAEGLRAFAAMHKELIVASSYSKNFGLYNERVGACTLVAADSETVDRAFSQMKAAIRANYSNPPAHGASVVATILSNDALRAIWEQELTDMRQRIQRMRQLFVNTLQEKGANRDFSFIIKQNGMFSFSGLTKEQVLRLREEFGVYAVASGRVNVAGMTPDNMAPLCEAIVAVL

Variants of: B1
Conditions: Escherichia coli (strain K12); pH 7.5; 25 °C; Urea; DSC; potassium-HEPES 40 mM; reversible: yes; structure 1AMQ; whole UniProt chain shown

Variant	ddG of mutation (higher = less stable) [kcal/mol]	denaturant m value [kcal/mol/M]	denaturant midpoint (higher = more stable) [M]	unfolding free energy [kcal/mol]
C389A	-3.2	3.87	3.41	13.2
C77A	1.3	2.13	4.06	8.67
C258A	2.5	2.14	3.51	7.5
C180S	1.8	2.38	3.41	8.12
C180A	2.2	2	3.87	7.74
C77A C180A C181A C258A C389A	1	2.83	3.16	8.92
C181A	1.6	2.35	3.53	8.32
